# Where no end group is shown, it is not given here. [ ]: non-standard residue; d: D form. Aib = CC(C)(N)C(=O)O
# Key:
# [1] = biological target: GLP-1 receptor (GLP-1R), stably expressed on HEK293 cells; assay: cell-based or functional assay
# [2] = biological target: Glucagon receptor (GCGR), stably expressed on HEK293 cells; assay: cell-based or functional assay
Binder,"GLP-1R (nM EC50), receptor-mediated cAMP production in HEK293 cells [1]","GCGR (nM EC50), receptor-mediated cAMP production in HEK293 cells [2]"
HSQGTFTSDYSKYLDERAAKEFIAWLEAGG-NH2 (not fully specified (residue 20); printed as HSQGTFTSDYSKYLDERAAK*EFIAWLEAGG) [dgc001],1.13 nM,0.806 nM
H[Aib]QGTFTSDYSKYLEERAAKEFIAWLEGEG-NH2 (not fully specified (residue 20); printed as HAibQGTFTSDYSKYLEERAAK*EFIAWLEGEG) [dgc021],0.382 nM,3.93 nM

# The next lines start with the values.
"GLP-1R (nM EC50), receptor-mediated cAMP production in HEK293 cells [1]","GCGR (nM EC50), receptor-mediated cAMP production in HEK293 cells [2]",Binder
1.51 nM,0.883 nM,"HXQGTFTSDYSKYLEERAAKEFIAWLEGEG (HELM PEPTIDE1{H.[Aib].Q.G.T.F.T.S.D.Y.S.K.Y.L.E.E.R.A.A.K.E.F.I.A.W.L.E.G.E.G.[am]}|PEPTIDE2{[CCCCCCCCCCCCCCCC(=O)[*:2]].[gGlu].[gGlu]}$PEPTIDE1,PEPTIDE2,20:R3-3:R2$$$V2.0; N-terminus assumed; SMILES CCCCCCCCCCCCCCCC(=O)N[C@@H](CCC(=O)N[C@@H](CCC(=O)NCCCC[C@H](NC(=O)[C@H](C)NC(=O)[C@H](C)NC(=O)[C@H](CCCNC(=N)N)NC(=O)[C@H](CCC(=O)O)NC(=O)[C@H](CCC(=O)O)NC(=O)[C@H](CC(C)C)NC(=O)[C@H](Cc1ccc(O)cc1)NC(=O)[C@H](CCCCN)NC(=O)[C@H](CO)NC(=O)[C@H](Cc1ccc(O)cc1)NC(=O)[C@H](CC(=O)O)NC(=O)[C@H](CO)NC(=O)[C@@H](NC(=O)[C@H](Cc1ccccc1)NC(=O)[C@@H](NC(=O)CNC(=O)[C@H](CCC(N)=O)NC(=O)C(C)(C)NC(=O)[C@@H](N)Cc1c[nH]cn1)[C@@H](C)O)[C@@H](C)O)C(=O)N[C@@H](CCC(=O)O)C(=O)N[C@@H](Cc1ccccc1)C(=O)N[C@H](C(=O)N[C@@H](C)C(=O)N[C@@H](Cc1c[nH]c2ccccc12)C(=O)N[C@@H](CC(C)C)C(=O)N[C@@H](CCC(=O)O)C(=O)NCC(=O)N[C@@H](CCC(=O)O)C(=O)NCC(N)=O)[C@@H](C)CC)C(=O)O)C(=O)O) [dgc020]"
0.291 nM,1.04 nM,"HXQGTFTSDYSKYLDERAAKEFIAWLEAGG (HELM PEPTIDE1{H.[Aib].Q.G.T.F.T.S.D.Y.S.K.Y.L.D.E.R.A.A.K.E.F.I.A.W.L.E.A.G.G.[am]}|PEPTIDE2{[CCCCCCCCCCCCCCCC(=O)[*:2]].[gGlu]}$PEPTIDE1,PEPTIDE2,20:R3-2:R2$$$V2.0; N-terminus assumed; SMILES CCCCCCCCCCCCCCCC(=O)N[C@@H](CCC(=O)NCCCC[C@H](NC(=O)[C@H](C)NC(=O)[C@H](C)NC(=O)[C@H](CCCNC(=N)N)NC(=O)[C@H](CCC(=O)O)NC(=O)[C@H](CC(=O)O)NC(=O)[C@H](CC(C)C)NC(=O)[C@H](Cc1ccc(O)cc1)NC(=O)[C@H](CCCCN)NC(=O)[C@H](CO)NC(=O)[C@H](Cc1ccc(O)cc1)NC(=O)[C@H](CC(=O)O)NC(=O)[C@H](CO)NC(=O)[C@@H](NC(=O)[C@H](Cc1ccccc1)NC(=O)[C@@H](NC(=O)CNC(=O)[C@H](CCC(N)=O)NC(=O)C(C)(C)NC(=O)[C@@H](N)Cc1c[nH]cn1)[C@@H](C)O)[C@@H](C)O)C(=O)N[C@@H](CCC(=O)O)C(=O)N[C@@H](Cc1ccccc1)C(=O)N[C@H](C(=O)N[C@@H](C)C(=O)N[C@@H](Cc1c[nH]c2ccccc12)C(=O)N[C@@H](CC(C)C)C(=O)N[C@@H](CCC(=O)O)C(=O)N[C@@H](C)C(=O)NCC(=O)NCC(N)=O)[C@@H](C)CC)C(=O)O) [dgc003]"

# Reference: US20230174608A1 (published 2023)
